These results are taken from article PMC10579966, “The NADH recycling enzymes TsaC and TsaD regenerate reducing equivalents for Rieske oxygenase chemistry” (The Journal of Biological Chemistry, 2023).

Data set [1] deals with T1, TsaC (Comamonas testosteroni, UniProt P94681, G149N).
T1 construct: gene tsaC1; N-terminal His6 tag with TEV site (residues -20 to -1, kept), codon-optimized, pET-28a(+)-TEV, E. coli C41(DE3); native residues 1-252; homotetramer
The data set can be described thus: GC-MS turnover. In kind it is biochemical. The conditions noted are these: 5 mM NAD+, 10 μM enzyme, 30 °C, 2 h.

For data set [2], the target named is T2, TsaC (Comamonas testosteroni, UniProt P94681, T143Q/G149N).
T2 construct: gene tsaC1; N-terminal His6 tag with TEV site (residues -20 to -1, kept), codon-optimized, pET-28a(+)-TEV, E. coli C41(DE3); native residues 1-252; homotetramer
T2 sequence (P94681 whole entry T143Q/G149N, the tested form may be a part): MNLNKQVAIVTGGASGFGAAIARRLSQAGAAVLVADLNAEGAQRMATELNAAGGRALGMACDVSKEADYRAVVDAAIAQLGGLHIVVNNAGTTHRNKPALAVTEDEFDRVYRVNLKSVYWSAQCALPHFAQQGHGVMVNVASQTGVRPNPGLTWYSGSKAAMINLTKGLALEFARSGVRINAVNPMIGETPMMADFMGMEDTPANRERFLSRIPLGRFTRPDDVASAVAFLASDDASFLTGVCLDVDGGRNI
The experiment in a line: GC-MS turnover. The conditions noted are these: 5 mM NAD+, 10 μM enzyme, 30 °C, 2 h. The format is biochemical.

For the next data set, the target named is T3, TsaM (Comamonas testosteroni, UniProt P94679).
T3 construct: gene tsaM1; pET-28a(+)-TEV-tsaM, E. coli C41(DE3), purified as TsaC; trimer
T3 sequence (P94679 1-347): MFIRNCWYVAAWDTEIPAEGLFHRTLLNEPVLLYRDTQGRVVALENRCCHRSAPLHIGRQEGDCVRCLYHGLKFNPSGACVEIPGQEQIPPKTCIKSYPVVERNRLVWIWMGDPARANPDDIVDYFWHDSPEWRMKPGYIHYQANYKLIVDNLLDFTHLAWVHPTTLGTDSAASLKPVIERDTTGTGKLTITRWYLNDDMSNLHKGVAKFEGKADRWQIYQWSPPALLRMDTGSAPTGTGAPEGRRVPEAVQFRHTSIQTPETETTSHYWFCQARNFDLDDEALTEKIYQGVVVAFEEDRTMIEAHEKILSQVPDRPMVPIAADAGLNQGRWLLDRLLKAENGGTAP
The data set can be described thus: LC-MS product formation and NADH consumption (A340). In kind it is biochemical. As to conditions: with reductase VanB, Fe(II), 30 °C.

Data set [3] addresses T4, TsaC (Comamonas testosteroni, UniProt P94681).
T4 construct: gene tsaC1; N-terminal His6 tag with TEV site (residues -20 to -1, kept), codon-optimized, pET-28a(+)-TEV, E. coli C41(DE3); native residues 1-252; homotetramer
The data set can be described thus: differential scanning fluorimetry. The format is binding. As to conditions: 10 μM enzyme; NADH alone. On the technique in general: DSF heats the sample and reads unfolding from a dye or from intrinsic fluorescence.

Substrate in data set [4]: O=C(O)c1ccc(CO)cc1
The data set can be described thus: LC-MS steady-state kinetics. The format is biochemical, Comamonas testosteroni. As to conditions: 2 mM NAD+, 30 °C. The source says: (§1) LC-MS steady-state kinetics on TsaC

Substrate in data set [5]: O=Cc1ccc(C(=O)O)cc1
The experiment in a line: LC-MS steady-state kinetics. In kind it is biochemical, Comamonas testosteroni. As to conditions: 2 mM NAD+, 30 °C, aldehyde hydrate proposed as the oxidized species.
From the text: as §1

Substrate in data set [6]: O=Cc1ccc(S(=O)(=O)O)cc1
The data set can be described thus: LC-MS steady-state kinetics. The conditions noted are these: 2 mM NAD+, 30 °C, aldehyde hydrate proposed as the oxidized species. The format is biochemical, Comamonas testosteroni.
From the text: as §1

Substrate in data set [7]: O=S(=O)(O)c1ccc(CO)cc1
The experiment in a line: LC-MS steady-state kinetics. The format is biochemical, Comamonas testosteroni. As to conditions: 2 mM NAD+, 30 °C.
From the text: as §1

Data set [8] deals with the molecule itself. The data set can be described thus: crystal structure; hanging-drop vapor diffusion, 10 to 20 mg/ml protein with 2 mM NAD+, 0.2 M KCl, 20% PEG 3350, 10% glycerol, 293 K; two chains in the asymmetric unit, tetramer with two symmetry-related molecules; 2.18 A.
Data set [9] concerns the molecule itself. The experiment in a line: SEC-MALS; 15 ul of 90 uM protein, AdvanceBio 300A column, 50 mM Hepes pH 8.2, 200 mM NaCl, 5% glycerol, with either NAD+ or NADH, room temperature; about 0.3 uM at the apex of the largest peak. On the technique in general: SEC sorts molecules by how far they enter the pores of the column.
Substrate in data set [10]: O=Cc1ccc(C(=O)O)cc1
The data set can be described thus: LC-MS steady-state kinetics. As to conditions: 2 mM NAD+, 30 °C. The format is biochemical, Comamonas testosteroni. From the text: (§2) LC-MS steady-state kinetics on TsaD

Substrate in data set [11]: O=Cc1ccc(S(=O)(=O)O)cc1
The experiment in a line: LC-MS steady-state kinetics. The format is biochemical, Comamonas testosteroni. The conditions noted are these: 2 mM NAD+, 30 °C.
From the text: as §2

Data set [12] deals with the molecule itself. The experiment in a line: SEC; HiPrep 16/60 Sephacryl S200-HR, 50 mM Hepes pH 8.0, 200 mM NaCl, 5% glycerol.
Data set [13] concerns the molecule itself. The data set can be described thus: SEC; gel filtration in the purification of TsaM, purified as described for TsaC; lysis buffer 50 mM Tris-HCl pH 7.2, 250 mM NaCl.

Numbering of substitutions follows the chain as printed. Numbers in names are those of the source.

T1 sequence (P94681 whole entry G149N, the tested form may be a part): as the sequence (P94681 whole entry T143Q/G149N, the tested form may be a part) above, with Q143T counted along it

Take `C[C@H](O)[C@@H](C)O` [meso-2,3-butanediol]: the GC-MS turnover result on TsaC [1] is “both the G149N and T143Q/G149N variants of TsaC show a significantly improved ability”; at TsaC [2] it was “T143Q/G149N variants of TsaC show a significantly improved ability to transform meso-2,3-butanediol into 3-hydroxy-2-butanone”.
Take `Cc1ccc(C(=O)O)cc1` [4-methylbenzoate]: the “LC-MS product formation and NADH consumption (A340)” value at TsaM was “TsaM and VanB consume more 4-methylbenzenesulfonate than 4-methylbenzoate”.
What is called ΔTm is the shift of the melting midpoint relative to a reference. Regarding `NC(=O)C1=CN([C@@H]2O[C@H](COP(=O)(O)OP(=O)(O)OC[C@H]3O[C@@H](n4cnc5c(N)ncnc54)[C@H](O)[C@@H]3O)[C@@H](O)[C@H]2O)C=CC1` [NADH], the ΔTm on TsaC [3] was 12.4 °C.
Consider `Cc1ccc(S(=O)(=O)O)cc1` [4-methylbenzenesulfonate], for which the “LC-MS product formation and NADH consumption (A340)” value at TsaM is on record as “more NADH is consumed in assays that contain 4-methylbenzenesulfonate rather than 4-methylbenzoate”.

B1: TsaC (wild type), short-chain dehydrogenase/reductase of the TsaMBCD pathway (enzyme, Comamonas testosteroni, UniProt P94681 1-252, looked up)
chain: MNLNKQVAIVTGGASGFGAAIARRLSQAGAAVLVADLNAEGAQRMATELNAAGGRALGMACDVSKEADYRAVVDAAIAQLGGLHIVVNNAGTTHRNKPALAVTEDEFDRVYRVNLKSVYWSAQCALPHFAQQGHGVMVNVASTTGVRPGPGLTWYSGSKAAMINLTKGLALEFARSGVRINAVNPMIGETPMMADFMGMEDTPANRERFLSRIPLGRFTRPDDVASAVAFLASDDASFLTGVCLDVDGGRNI
notes: TsaC, Comamonas testosteroni, codon-optimized synthetic gene in pET-28a(+)-TEV; native residues 1 (initial methionine) to 252 (the four C-terminal residues are 249 to 252); the His6 tag and TEV protease cleavage site are numbered -20 to -1; The tag and TEV site (residues -20 to -1) are present in the crystallised protein but disordered; no cleavage of the tag is described; also called wild-type …
The term Km denotes the concentration of substrate that gives half-maximal velocity. By Vmax is commonly meant the rate approached at saturating substrate. As usually defined, the kcat is the number of substrate molecules converted per active site and unit of time at saturation. The kcat/Km is the turnover number divided by the Michaelis constant. As usually defined, the stoichiometry N is a count of units in the complex or per binding partner. Regarding B1, in data set [4], the Km was 18 ± 2.8 µM, the Vmax was 12 µM/min, the kcat came to 0.0983 ± 0.00367 s⁻¹ and the kcat/Km was determined as 5400 ± 870 M⁻¹ s⁻¹. For the same molecule, in data set [5], the Km was 23 ± 4.7 µM, the Vmax came to 13 µM/min, the kcat is 0.112 ± 0.00667 s⁻¹ and the kcat/Km stood at 4800 ± 1000 M⁻¹ s⁻¹. In [6], the Km came out at 20 ± 3.5 µM, the Vmax came to 15 µM/min, the kcat turned out to be 0.125 ± 0.00583 s⁻¹ and the kcat/Km was found to be 6200 ± 1100 M⁻¹ s⁻¹. In addition, in data set [7], the Km was found to be 13 ± 2.0 µM, the Vmax came out at 12 µM/min, the kcat amounted to 0.1 ± 0.004 s⁻¹ and the kcat/Km was 7900 ± 1300 M⁻¹ s⁻¹. The “stoichiometry N” value in data set [8] was determined as 4.

B2: Y155F TsaC variant (enzyme, Comamonas testosteroni, UniProt P94681 1-252, looked up)
chain: B1 chain with Y155F
notes: TsaC, Comamonas testosteroni, made by site-directed mutagenesis of pET-28a(+)-TEV-tsaC; same limits as the wild type (native residues 1 to 252); Expressed and purified as the wild type; source: E. coli C41(DE3), purified (HisTrap HP, Sephacryl S200-HR gel filtration)
Consider B2, for which the “stoichiometry N” value in data set [9] turned out to be 4.

B3: TsaD (wild type), aldehyde dehydrogenase of the TsaMBCD pathway (enzyme, Comamonas testosteroni, UniProt P94682 1-476, looked up)
chain: MSTVLYRCPELLIGGEWRPGRHEQRLVVRNPATGEPLDELRLASADDLQLALQTTQQAFEHWRQVPAHERCARLERGVARLRENTERIAHLLTLEQGKTLAEARMECAMAADLIKWYAEEARRVYGRVIPARLPNSRMEVFKFPVGPVAAFSPWNFPLVLSARKLGGAIAAGCSIVLKAAEETPASVAAMVDCLNQELPPGVVQLLYGVPAEVSQALIASPVVRKVTFTGSVPVGRHLAELSARHLKRITLELGGHAPVIVCGDADIARTVNLMVQHKFRNAGQACLAPTRFFVDRRIYGDFVDAFGATQALRVGAGMAAETQMGPVASARRQAAVQDLIARSVAAGARPVASAVPEAGYFVAPTLLADVPLDAPVMSEEPFGPVACAVPFDSLDQAIAQANHNPYGLAGYLFTDSAKAILAVSERLEVGSLAVNGMGVSVPEAPFGGVKDSGYGSESGTEGMEAFLDTKFMHYVA
notes: TsaD, Comamonas testosteroni, codon-optimized synthetic gene in pMCSG9; Expression followed the TsaC protocol with ampicillin; also called untagged TsaD; source: E. coli, purified (MBPTrap, TEV cleavage, HisTrap HP flow-through, Sephacryl S200-HR gel filtration); not shown: MBP, N-terminal, cleaved; His6, N-terminal, cleaved
Consider B3, for which, in [10], the Km was determined as 21 ± 6.9 µM, the Vmax is 13 µM/min, the kcat is 0.105 ± 0.00983 s⁻¹ and the kcat/Km turned out to be 5000 ± 1700 M⁻¹ s⁻¹. In data set [11], the Km was found to be 16 ± 2.5 µM, the Vmax was 13 µM/min, the kcat came to 0.112 ± 0.00517 s⁻¹ and the kcat/Km worked out at 6900 ± 1100 M⁻¹ s⁻¹. The “stoichiometry N” value in data set [12] is 2.

B4: TsaM (wild type), Rieske oxygenase of the TsaMBCD pathway (enzyme, Comamonas testosteroni, UniProt P94679 1-347, looked up)
chain: T3 sequence (P94679 1-347)
notes: TsaM, Comamonas testosteroni, in pET-28a(+)-TEV-tsaM; also called wild-type TsaM; source: E. coli C41(DE3), purified as described for TsaC (gel filtration)
As to B4, the “stoichiometry N” value in data set [13] is 3.
